For assay [1], the target named is T1, human DR4 (Death Receptor 4), cell surface expressed on human tumor cell lines (human, UniProt O00220 24-468).
T1 construct: also called TNFRSF10A; TRAIL-R1
T1 sequence: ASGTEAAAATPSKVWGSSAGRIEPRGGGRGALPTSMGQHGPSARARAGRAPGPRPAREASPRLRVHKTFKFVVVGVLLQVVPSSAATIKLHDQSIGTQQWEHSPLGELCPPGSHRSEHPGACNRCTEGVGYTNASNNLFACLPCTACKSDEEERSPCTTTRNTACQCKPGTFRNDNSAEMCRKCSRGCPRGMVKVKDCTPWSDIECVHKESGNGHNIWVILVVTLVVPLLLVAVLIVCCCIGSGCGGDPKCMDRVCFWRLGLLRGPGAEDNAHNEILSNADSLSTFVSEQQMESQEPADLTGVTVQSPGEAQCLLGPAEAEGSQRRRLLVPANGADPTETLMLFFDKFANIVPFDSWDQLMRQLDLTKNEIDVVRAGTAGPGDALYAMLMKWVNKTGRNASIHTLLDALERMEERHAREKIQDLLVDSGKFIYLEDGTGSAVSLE
Nature of the assay: flow cytometry, HCT-15 cells, n = 3.

Assay [2] concerns the target T2, human FAPα (Fibroblast activation protein alpha), cell surface expressed (human, UniProt Q12884 1-760).
T2 construct: Endogenous on human lung fibroblasts and CAFs
T2 sequence: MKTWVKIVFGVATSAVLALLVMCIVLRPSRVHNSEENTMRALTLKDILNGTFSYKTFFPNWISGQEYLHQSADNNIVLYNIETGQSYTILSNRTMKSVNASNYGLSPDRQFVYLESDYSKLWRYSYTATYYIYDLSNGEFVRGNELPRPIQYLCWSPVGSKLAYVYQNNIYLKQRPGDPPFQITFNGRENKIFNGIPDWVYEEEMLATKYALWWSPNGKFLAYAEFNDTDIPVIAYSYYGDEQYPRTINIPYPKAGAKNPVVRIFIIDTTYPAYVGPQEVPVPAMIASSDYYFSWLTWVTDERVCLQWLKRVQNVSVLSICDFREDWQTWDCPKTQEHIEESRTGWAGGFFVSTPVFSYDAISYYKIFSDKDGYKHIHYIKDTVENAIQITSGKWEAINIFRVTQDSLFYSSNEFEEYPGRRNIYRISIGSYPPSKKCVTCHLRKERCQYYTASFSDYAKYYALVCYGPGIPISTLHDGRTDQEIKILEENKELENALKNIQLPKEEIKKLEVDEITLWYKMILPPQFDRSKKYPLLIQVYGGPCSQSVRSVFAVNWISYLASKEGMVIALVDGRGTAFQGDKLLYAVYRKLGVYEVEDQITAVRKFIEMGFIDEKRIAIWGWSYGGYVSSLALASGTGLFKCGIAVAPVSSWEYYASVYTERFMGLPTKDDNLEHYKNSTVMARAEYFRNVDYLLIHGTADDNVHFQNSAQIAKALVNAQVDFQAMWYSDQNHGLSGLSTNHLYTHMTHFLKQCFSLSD
The assay can be described thus: flow cytometry, human lung fibroblasts, n = 1. Here is the method:
Binding of bispecific or monoclonal antibodies carrying the anti-FAPα arm derived from IgG1-FAPα-FERL (BisG1-FAPα-FERL/DR4-FERR, BisG1-FAPα-FERL/b12-FERR, and IgG1-FAPα-FERL) to cell surface expressed human FAPα was analyzed by flow cytometry using human lung fibroblasts and CAFs, which endogenously express FAPα. BisG1-b12-FERL/b12-FERR was used as negative control.
Human lung fibroblasts and CAFs (50,000 cells/well) were seeded in 96-Well round bottom plates (Greiner Bio-one, Cat #650101). Antibody dilutions were prepared using fluorescence-activated cell sorting (FACS) buffer, consisting of phosphate buffer saline (PBS, Lonza, Cat #BE17-517Q)+1% Bovine Serum Albumin (BSA, Roche, Cat #10735086001)+0.02% Sodium Azide (Bio-World, Cat #41920044-3). Plates were centrifuged, supernatant was removed, cells were resuspended in 50 μL of human Fc Block (BD, Cat #564220, diluted 1:100 in FACS buffer) and 50 μL of viability stain TO-PRO-3 Iodide (Thermo Fisher, Cat #T3605, diluted 1: 25,000 in FACS buffer), and incubated for 15 min at 4° C. Plates were washed three times with FACS buffer. Plates were centrifuged, supernatant was removed, cells were resuspended in 50 μL of antibody dilutions (concentration range 90-0.0005 μg/mL, three-fold dilution steps using FACS buffer) of BisG1-FAPα-FERL/DR4-FERR, BisG1-FAPα-FERL/b12-FERR, BisG1-b12-FERL/b12-FERR (top six concentrations only for CAFs culture) or IgG1-FAPα-FERL (top four concentrations only for CAFs culture) and incubated for 30 min at 4° C. Cells were washed three times with FACS buffer and resuspended in 50 μL of Fluorescein isothiocyanate (FITC)-labeled polyclonal antibody goat anti-mouse IgG1 (Jackson Immuno Research, Cat #109-096-097, diluted 1:100 in FACS buffer). […] Antibody binding to viable cells (TO-PRO-3 negative) was analyzed by flow cytometry on a FACSCelesta™ (BD biosciences) and data were processed using FlowJo_v10.8.1 (FlowJo LLC). Geomean fluorescence intensity, gMFI, was determined and visualized using GraphPad Prism.
(In general: In flow cytometry, cells or beads pass a laser one at a time.)

Changes are numbered by the printed parent chain.

For 5 molecules, EC50 results are on record in US20250002610A1 (Genmab, published 2025).

In general, EC50 refers to the concentration needed to bring the measured effect to its halfway point.

B1: IgG1-DR4-FERR (antibody, V domains shown)
VH: QVQLQESGPGLVKPSGTLSLTCAVSGGSISSYSWWSWIRQPPGKGLEWIGELYHSGSTNYNPSLKSRVTISVDKSKNQFSLKLRSVTAADTAVYYCVRGVATIDYWGQGTLVTVSS
VL: QSALTQPPSASGSPGQSVTISCTGTSSDVGGYNFVSWYQQDPGKAPKLLIYEVTKRPSGVPDRFSGSKSGNTASLTVSGLQAEDEADYYCSSYAGSNNVMFGGGTKLTVLG
notes: Bivalent monoclonal IgG1 lambda
The molecule B1 came in with a concentration giving a half-maximal response (EC50) in assay [1] of 0.15 µg/mL.

B2: BisG1-FAPα-FERL/DR4-FERR (bispecific antibody, human IgG1, kappa, lambda)
heavy 1: EVQLLESGGGLVQPGGSPRLSCEASGFTFSSYALSWVRQAPGKGLEWVSAISGSGGGRYYADSVKGRFTISRDNSKNTLFLQMNSLRAEDTAVYYCAKEGYSSSGTYWDHWGQGTLVTVSSASTKGPSVFPLAPSSKSTSGGTAALGCLVKDYFPEPVTVSWNSGALTSGVHTFPAVLQSSGLYSLSSVVTVPSSSLGTQTYICNVNHKPSNTKVDKRVEPKSCDKTHTCPPCPAPEFERGPSVFLFPPKPKDTLMISRTPEVTCVVVDVSHEDPEVKFNWYVDGVEVHNAKTKPREEQYNSTYRVVSVLTVLHQDWLNGKEYKCKVSNKALPAPIEKTISKAKGQPREPQVYTLPPSREEMTKNQVSLTCLVKGFYPSDIAVEWESNGQPENNYKTTPPVLDSDGSFLLYSKLTVDKSRWQQGNVFSCSVMHEALHNHYTQKSLSLSPG
light 1: AIQMTQSPSSVSASVGDRVTITCRASQGVSSWLAWYQQKPGRAPKLLIYVASTLQSGVPSRFSGSGSGTDFTLTINSLQPEDFATYYCQQANSFPPTFGQGTRLEMKRTVAAPSVFIFPPSDEQLKSGTASVVCLLNNFYPREAKVQWKVDNALQSGNSQESVTEQDSKDSTYSLSSTLTLSKADYEKHKVYACEVTHQGLSSPVTKSFNRGEC
heavy 2: QVQLQESGPGLVKPSGTLSLTCAVSGGSISSYSWWSWIRQPPGKGLEWIGELYHSGSTNYNPSLKSRVTISVDKSKNQFSLKLRSVTAADTAVYYCVRGVATIDYWGQGTLVTVSSASTKGPSVFPLAPSSKSTSGGTAALGCLVKDYFPEPVTVSWNSGALTSGVHTFPAVLQSSGLYSLSSVVTVPSSSLGTQTYICNVNHKPSNTKVDKRVEPKSCDKTHTCPPCPAPEFERGPSVFLFPPKPKDTLMISRTPEVTCVVVDVSHEDPEVKFNWYVDGVEVHNAKTKPREEQYNSTYRVVSVLTVLHQDWLNGKEYKCKVSNKALPAPIEKTISKAKGQPREPQVYTLPPSREEMTKNQVSLTCLVKGFYPSDIAVEWESNGQPENNYKTTPPVLDSDGSFFLYSRLTVDKSRWQQGNVFSCSVMHEALHNHYTQKSLSLSPG
light 2: QSALTQPPSASGSPGQSVTISCTGTSSDVGGYNFVSWYQQDPGKAPKLLIYEVTKRPSGVPDRFSGSKSGNTASLTVSGLQAEDEADYYCSSYAGSNNVMFGGGTKLTVLGQPKAAPSVTLFPPSSEELQANKATLVCLISDFYPGAVTVAWKADSSPVKAGVETTTPSKQSNNKYAASSYLSLTPEQWKSHRSYSCQVTHEGSTVEKTVAPTECS
notes: Human IgG1 bispecific made by controlled Fab-arm exchange of IgG1-FAPα-FERL and IgG1-DR4-FERR; monovalent for FAPα and for DR4; also called GEN1057
Turning to B2, the EC50 was 0.68 µg/mL in assay [1] and 0.046 µg/mL in assay [2].

B3: IgG1-FAPα-FERL (antibody)
heavy: B2 heavy 1
light: B2 light 1
notes: Bivalent monoclonal IgG1 kappa
Molecule B3 yielded an EC50 in assay [2] of 0.016 µg/mL.

B4: BisG1-b12-FERL/DR4-FERR (bispecific antibody, human IgG1, kappa, lambda)
heavy 1: QVQLVQSGAEVKKPGASVKVSCQASGYRFSNFVIHWVRQAPGQRFEWMGWINPYNGNKEFSAKFQDRVTFTADTSANTAYMELRSLRSADTAVYYCARVGPYSWDDSPQDNYYMDVWGKGTTVIVSSASTKGPSVFPLAPSSKSTSGGTAALGCLVKDYFPEPVTVSWNSGALTSGVHTFPAVLQSSGLYSLSSVVTVPSSSLGTQTYICNVNHKPSNTKVDKRVEPKSCDKTHTCPPCPAPEFERGPSVFLFPPKPKDTLMISRTPEVTCVVVDVSHEDPEVKFNWYVDGVEVHNAKTKPREEQYNSTYRVVSVLTVLHQDWLNGKEYKCKVSNKALPAPIEKTISKAKGQPREPQVYTLPPSREEMTKNQVSLTCLVKGFYPSDIAVEWESNGQPENNYKTTPPVLDSDGSFLLYSKLTVDKSRWQQGNVFSCSVMHEALHNHYTQKSLSLSPG
light 1: EIVLTQSPGTLSLSPGERATFSCRSSHSIRSRRVAWYQHKPGQAPRLVIHGVSNRASGISDRFSGSGSGTDFTLTITRVEPEDFALYYCQVYGASSYTFGQGTKLERKRTVAAPSVFIFPPSDEQLKSGTASVVCLLNNFYPREAKVQWKVDNALQSGNSQESVTEQDSKDSTYSLSSTLTLSKADYEKHKVYACEVTHQGLSSPVTKSFNRGEC
heavy 2: B2 heavy 2
light 2: B2 light 2
notes: Fab-arm exchange of IgG1-b12-FERL and IgG1-DR4-FERR; also called bsIgG1-ctrl-FERLxDR4-FERR
Molecule B4 had an EC50 in assay [1] of 0.53 µg/mL.

B5: BisG1-FAPα-FERL/b12-FERR (bispecific antibody, human IgG1, kappa)
heavy 1: B2 heavy 1
light 1: B2 light 1
heavy 2: B4 heavy 1 with L415F, K419R
light 2: B4 light 1
B5: the response in assay [2] was half-maximal at 0.043 µg/mL (EC50).
